Data: patent US20190119394A1

Biological target: Death receptor 4 (DR4) on primary human pancreatic stellate cells (human) (UniProt O00220)
Experiment: cell-based or functional assay

“mapatumumab (human anti-DR4 antibody, Creative Biolabs)” gave a caspase-3/7 activity (apoptosis marker), culture-activated PSCs, 10^3 ng/mL of 1.27 fold.
